Laboratory results reported in paper PMC4428071, “Structural basis for epitope masking and strain specificity of a conserved epitope in an intrinsically disordered malaria vaccine candidate” (Scientific Reports, 2015).

B1: MSP2_(14-23) (peptide)
peptide: Ac-NAYNMSIRRS-NH2
B2: MSP2_(13-22) (peptide)
peptide: Ac-NNAYNMSIRR-NH2
B3: MSP2_(15-23) (peptide)
peptide: Ac-AYNMSIRRS-NH2
B4: MSP2_(11-23) (peptide)
peptide: Ac-FINNAYNMSIRRS-NH2
B5: MSP2_(15-22) (peptide)
peptide: Ac-AYNMSIRR-NH2
B6: MSP2_(14-22) (peptide)
peptide: Ac-NAYNMSIRR-NH2

target: mouse monoclonal antibody 6D8 (mouse); assay: SPR
Sequence (heavy, as listed by the source, chain 1 of 2): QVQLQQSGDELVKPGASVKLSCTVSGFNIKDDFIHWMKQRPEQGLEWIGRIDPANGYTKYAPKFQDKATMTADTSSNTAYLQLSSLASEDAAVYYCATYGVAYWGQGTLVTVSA
Sequence (light, as listed by the source, chain 2 of 2): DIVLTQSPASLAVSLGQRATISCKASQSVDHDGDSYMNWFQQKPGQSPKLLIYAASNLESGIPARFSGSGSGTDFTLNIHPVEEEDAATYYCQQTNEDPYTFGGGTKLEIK

Row | Kd [nM] | Binder
1 | 16 | B1
2 | 14 | B2
3 | 34 | B3
4 | 6 | B4
5 | 87 | B5
6 | 6 | B6

target: 6D8 scFv (mouse); assay: ITC; Microcal ITC-200; MSP2 or peptide titrated into 6D8 scFv or 6D8 IgG
Sequence (heavy, as listed by the source, chain 1 of 2): as the sequence (heavy, as listed by the source, chain 1 of 2) above
Sequence (light, as listed by the source, chain 2 of 2): as the sequence (light, as listed by the source, chain 2 of 2) above

Row | Kd [nM] | Binder
7 | < 5 | B6
